Results published in patent publication US20200317768A1 (published 2020).
Changes are numbered by the printed parent chain. Numbers in names are those of the source.

T1: human FcγRIIb extracellular domain, C-terminal His-tag (human, UniProt P31994 43-217)
T1 construct: also called FcgRIIb (human)
T1 sequence: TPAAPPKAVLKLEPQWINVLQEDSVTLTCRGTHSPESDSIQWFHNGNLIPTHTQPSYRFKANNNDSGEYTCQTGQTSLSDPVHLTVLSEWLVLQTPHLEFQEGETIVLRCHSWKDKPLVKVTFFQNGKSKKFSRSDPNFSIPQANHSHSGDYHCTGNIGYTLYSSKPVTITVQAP

T2: human FcγRIIaH extracellular domain, C-terminal His-tag (human, UniProt P12318 34-217)
T2 construct: also called human FcγRIIa (type H); FcgRIIaH
T2 sequence: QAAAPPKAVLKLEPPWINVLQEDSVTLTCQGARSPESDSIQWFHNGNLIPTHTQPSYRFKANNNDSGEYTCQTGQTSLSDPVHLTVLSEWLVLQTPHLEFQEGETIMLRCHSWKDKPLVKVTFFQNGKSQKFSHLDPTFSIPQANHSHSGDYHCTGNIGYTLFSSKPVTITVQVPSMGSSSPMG

T3: human FcγRIIaR extracellular domain, C-terminal His-tag (human, UniProt P12318 34-217)
T3 construct: also called human FcγRIIa (type R); FcgRIIaR
T3 chain: T2 sequence with H134R

T4: cynomolgus monkey FcγRIIb extracellular domain, C-terminal His-tag (cynomolgus monkey)
T4 construct: also called cyno FcγRIIb; cynoFcγRIIb
T4 chain: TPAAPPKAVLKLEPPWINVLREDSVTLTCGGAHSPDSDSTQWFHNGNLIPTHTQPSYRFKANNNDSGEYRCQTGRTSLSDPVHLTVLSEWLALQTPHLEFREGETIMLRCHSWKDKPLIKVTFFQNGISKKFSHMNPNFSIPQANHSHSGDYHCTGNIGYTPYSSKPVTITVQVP

T5: human FcγRIIb extracellular domain, C-terminal His-tag (human, UniProt P31994 43-217)
T5 construct: also called human FcgRIIb; FcgRIIb
T5 sequence: T1 sequence

T6: human FcγRIIaH extracellular domain, C-terminal His-tag (human, UniProt P12318 34-217)
T6 construct: also called human FcγRIIa (type H); FcgRIIaH
T6 sequence: T2 sequence

T7: cynomolgus monkey FcγRIIa3 extracellular domain, C-terminal His-tag (cynomolgus monkey)
T7 construct: also called cyno FcγRIIa3; cynoFcgRIIa3
T7 chain: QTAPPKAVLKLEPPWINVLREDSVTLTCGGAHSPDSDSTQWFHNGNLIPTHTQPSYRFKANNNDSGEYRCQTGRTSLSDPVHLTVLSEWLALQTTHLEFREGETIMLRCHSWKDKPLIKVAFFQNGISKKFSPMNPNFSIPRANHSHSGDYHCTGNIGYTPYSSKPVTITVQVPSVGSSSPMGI

T8: cynomolgus monkey FcγRIIa1 extracellular domain, C-terminal His-tag (cynomolgus monkey)
T8 construct: also called cyno FcγRIIa1; cynoFcgRIIa1
T8 chain: T7 chain with T95P, A121T, S128A, P133H, N135D

T9: cynomolgus monkey FcγRIIa2 extracellular domain, C-terminal His-tag (cynomolgus monkey)
T9 construct: also called cyno FcγRIIa2; cynoFcgRIIa2
T9 chain: T7 chain with I127K, K130N, P133H, R142Q

T10: cynomolgus monkey FcγRIIIaS extracellular domain, C-terminal His-tag (cynomolgus monkey, UniProt Q8SPW2 21-206 at identity 1.00))
T10 construct: also called cyno FcγRIIIaS; cynoFcγRIIIaS
T10 chain: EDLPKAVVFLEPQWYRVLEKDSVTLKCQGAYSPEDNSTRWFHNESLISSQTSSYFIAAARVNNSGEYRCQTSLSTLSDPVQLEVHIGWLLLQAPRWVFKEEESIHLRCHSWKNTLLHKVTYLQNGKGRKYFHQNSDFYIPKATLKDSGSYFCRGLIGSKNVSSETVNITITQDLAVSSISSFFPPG

T11: human FcγRIIaR extracellular domain, C-terminal His-tag (human, UniProt P12318 34-217)
T11 construct: also called human FcγRIIa (type R); FcgRIIaR
T11 chain: T2 sequence with H134R

B1: GpH7-B3 variant S267A/GpL16-k0 (antibody, human IgG1, kappa)
heavy: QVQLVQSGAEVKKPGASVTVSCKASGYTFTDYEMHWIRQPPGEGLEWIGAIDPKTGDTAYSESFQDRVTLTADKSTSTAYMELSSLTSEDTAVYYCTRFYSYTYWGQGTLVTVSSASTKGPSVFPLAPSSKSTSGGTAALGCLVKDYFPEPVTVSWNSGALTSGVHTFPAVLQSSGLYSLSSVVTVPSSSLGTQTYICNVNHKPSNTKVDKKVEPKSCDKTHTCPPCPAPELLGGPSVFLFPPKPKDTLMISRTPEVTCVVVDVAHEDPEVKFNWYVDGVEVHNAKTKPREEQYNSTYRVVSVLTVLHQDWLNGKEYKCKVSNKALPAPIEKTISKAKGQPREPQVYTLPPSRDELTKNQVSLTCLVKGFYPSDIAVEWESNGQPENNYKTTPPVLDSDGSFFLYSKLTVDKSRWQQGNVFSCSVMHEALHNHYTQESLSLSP
light: DIVMTQSPLSLPVTPGEPASISCQASESLVHSNRNTYLHWYLQKPGQSPQLLIYKVSNRFSGVPDRFSGSGSGTDFTLKISRVEAEDVGVYYCSQNTHVPPTFGQGTKVEIERTVAAPSVFIFPPSDEQLKSGTASVVCLLNNFYPREAKVQWKVDNALQSGNSQESVTEQDSKDSTYSLSSTLTLSKADYEKHKVYACEVTHQGLSSPVTKSFNRGEC
B2: GpH7-B3 variant S298L/GpL16-k0 (antibody, human IgG1, kappa)
heavy: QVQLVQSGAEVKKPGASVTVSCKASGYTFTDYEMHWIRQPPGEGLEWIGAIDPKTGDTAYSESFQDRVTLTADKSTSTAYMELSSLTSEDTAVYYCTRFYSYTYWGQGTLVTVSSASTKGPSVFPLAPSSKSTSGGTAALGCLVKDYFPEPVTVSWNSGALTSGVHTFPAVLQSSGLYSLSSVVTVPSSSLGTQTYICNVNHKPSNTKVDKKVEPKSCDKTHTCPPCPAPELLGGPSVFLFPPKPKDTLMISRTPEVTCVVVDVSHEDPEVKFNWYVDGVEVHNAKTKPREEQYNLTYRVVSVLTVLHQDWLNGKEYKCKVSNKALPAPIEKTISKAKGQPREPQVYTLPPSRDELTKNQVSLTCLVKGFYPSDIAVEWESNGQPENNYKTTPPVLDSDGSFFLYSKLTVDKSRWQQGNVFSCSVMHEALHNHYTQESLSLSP
light: B1 light
B3: GpH7-B3 variant S267H/GpL16-k0 (antibody, human IgG1, kappa)
heavy: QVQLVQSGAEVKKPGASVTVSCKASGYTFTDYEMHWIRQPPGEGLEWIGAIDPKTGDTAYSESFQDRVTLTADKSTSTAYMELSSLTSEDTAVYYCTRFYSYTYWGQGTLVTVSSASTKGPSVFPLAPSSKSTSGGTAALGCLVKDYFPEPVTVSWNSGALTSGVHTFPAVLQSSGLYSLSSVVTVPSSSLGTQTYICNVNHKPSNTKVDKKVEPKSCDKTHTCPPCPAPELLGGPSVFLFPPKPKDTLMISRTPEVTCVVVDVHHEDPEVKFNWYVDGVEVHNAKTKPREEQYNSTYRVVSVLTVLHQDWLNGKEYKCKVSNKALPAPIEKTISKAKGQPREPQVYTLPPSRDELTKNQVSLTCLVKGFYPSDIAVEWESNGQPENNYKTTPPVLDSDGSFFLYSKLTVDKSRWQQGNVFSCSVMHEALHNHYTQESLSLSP
light: B1 light
B4: GpH7-B3 variant S267L/GpL16-k0 (antibody, human IgG1, kappa)
heavy: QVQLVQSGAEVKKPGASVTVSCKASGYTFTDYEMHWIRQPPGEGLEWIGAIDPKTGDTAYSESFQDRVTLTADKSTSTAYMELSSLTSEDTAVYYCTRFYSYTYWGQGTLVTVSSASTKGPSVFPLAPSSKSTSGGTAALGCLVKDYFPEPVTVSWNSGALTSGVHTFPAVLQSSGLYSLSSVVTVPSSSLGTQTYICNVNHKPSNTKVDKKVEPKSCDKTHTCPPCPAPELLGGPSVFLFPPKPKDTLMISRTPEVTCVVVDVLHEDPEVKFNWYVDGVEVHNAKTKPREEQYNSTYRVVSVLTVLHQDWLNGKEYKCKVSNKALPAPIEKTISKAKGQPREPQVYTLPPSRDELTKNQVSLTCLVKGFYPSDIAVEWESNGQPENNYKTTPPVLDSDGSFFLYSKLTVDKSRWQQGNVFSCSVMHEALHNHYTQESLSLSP
light: B1 light
B5: M103205H795-MY198/M103202L889-SK1 (antibody, human IgG1, kappa)
heavy: QVTLKESGPVLVKPTETLTLTCTVSGIDLSHDDISWVRQAPGKGLEWVGIISYAGSTYYASWAKGRLTISKDTSKNQVVLTMTNMDPVDTATYYCARGVPAYSHGGDLWGQGTLVTVSSASTKGPSVFPLAPSSKSTSGGTAALGCLVKDYFPEPVTVSWNSGALTSGVHTFPAVLQSSGLYSLSSVVTVPSSSLGTQTYICNVNHKPSNTKVDKKVEPKSCDKTHTCPPCPAPELLNGPVVFLFPPKPKDTLMISRTPEVTCVVVDVSDEDPEVKFNWYVDGVEVHNAKTKPREEQYNSTYRVVSVLTVLHQDWLNGKEYKCKVSNKALPKPIEKTISKAKGQPREPQVYTLPPSREEMTKNQVSLTCLVKGFYPSDIAVEWESNGQPENNYKTTPMVLDSDGSFFLYSKLTVDKSRWQQGNVFSCSVMHEALHNHYTQKSLSLSP
light: DIVMTQSPATLSLSPGERATLSCTSSQSVYHANWLSWFQQKPGQPPKLLIYWASTLAYGVPSRFSGSGSGTDFTLTISSLQPEDAATYYCAGGYGGGRYAFGQGTKVEIKRTVAAPSVFIFPPSDEQLKSGTASVVCLLNNFYPREAKVQWKVDNALQSGNSQESVTEQDSKDSTYSLSSTLTLSKADYEKHKVYACEVTHQGLSSPVTKSFNRGEC
notes: Substitutions introduced into M103205H795-SG1; expressed with M103202L889-SK1 as light chain
B6: M103205H795-MY200/M103202L889-SK1 (antibody, human IgG1, kappa)
heavy: B5 heavy with D270E, M398P
light: B5 light
notes: as for B5
B7: M103205H795-MY204/M103202L889-SK1 (antibody, human IgG1, kappa)
heavy: B5 heavy with D270E, Q297L, M398P
light: B5 light
notes: as for B5
B8: M103205H795-MY199/M103202L889-SK1 (antibody, human IgG1, kappa)
heavy: B5 heavy with V241S, D270E, M398P
light: B5 light
notes: as for B5
B9: M103205H795-MY201/M103202L889-SK1 (antibody, human IgG1, kappa)
heavy: B5 heavy with V241S, M398P
light: B5 light
notes: also called MS1032LO06-MY201
B10: M103205H795-MY205/M103202L889-SK1 (antibody, human IgG1, kappa)
heavy: B5 heavy with V241S, Q297L, M398P
light: B5 light
notes: also called MS1032LO06-MY205
B11: M103205H795-MY202/M103202L889-SK1 (antibody, human IgG1, kappa)
heavy: B5 heavy with M398P
light: B5 light
notes: as for B5

Assays:
[1] = target: T1, human FcγRIIb extracellular domain, …; assay: SPR 25C; FcgR bound per captured antibody, relative to parent B3
[2] = target: T2, human FcγRIIaH extracellular domain, …; assay: as above
[3] = target: T3, human FcγRIIaR extracellular domain, …; assay: as above
[4] = target: T4, cynomolgus monkey FcγRIIb extracellular …; assay: SPR (Biacore), antibody captured, FcgR analyte
Experimental: (§1) The kinetic analysis of interactions between these antibodies and FcγR was carried out using BIACORE® T200 or BIACORE® 4000 (GE Healthcare). HBS-EP+ (GE Healthcare) was used as the running buffer, and the measurement temperature was set to 25° C. A chip produced by immobilizing Protein A. Protein A/G or mouse anti-human IgG kappa light chain (BD Biosciences) onto a Series S Sensor Chip CM4 or CM5 (GE Healthcare) by the amine-coupling method was used. […] After the measurement, the antibody captured on the chip was washed off by allowing reaction with 10 mM glycine-HCl, pH1.5 and 25 mM NaOH so that the chip was regenerated and used repeatedly. The sensorgrams obtained as measurement results were analyzed by the 1:1 Langmuir binding model using the BIACORE® Evaluation Software to calculate the binding rate constant ka (L/mol/s) and dissociation rate constant kd (l/s), and the dissociation constant KD (mol/L) was calculated from these values. […] Regarding such interactions, KD values were calculated using the following 1:1 binding model described in BIACORE® T100 Software Handbook BR1006-48 Edition AE.
(§2) The behavior of interacting molecules according to the 1:1 binding model on BIACORE® can be described by Equation 1: Req=C·R max/(KD+C)+RI, wherein, Req is a plot of steady-state binding levels to analyte concentration. C is concentration, RI is bulk refractive index contribution in the sample, and Rmax is analyte binding capacity of the surface. When this equation is rearranged, KD can be expressed as Equation 2: KD=C·Rmax/(Req−RI)−C. KD can be calculated by substituting the values of Rmax, RI, and C into Equation 1 or Equation 2. From the current measurement conditions, RI=0, C=2 μmol/L can be used.

[5] = target: T5, human FcγRIIb extracellular domain, …; assay: SPR (Biacore), antibody captured, FcgR analyte
Experimental: as §1, §2

[6] = target: T6, human FcγRIIaH extracellular domain, …; assay: SPR (Biacore), antibody captured, FcgR analyte
Experimental: as §1, §2

[7] = target: T7, cynomolgus monkey FcγRIIa3 …; assay: SPR (Biacore), antibody captured, FcgR analyte
Experimental: as §1, §2

[8] = target: T8, cynomolgus monkey FcγRIIa1 …; assay: SPR (Biacore), antibody captured, FcgR analyte
Experimental: as §1, §2

[9] = target: T9, cynomolgus monkey FcγRIIa2 …; assay: SPR (Biacore), antibody captured, FcgR analyte
Experimental: as §1, §2

[10] = target: T10, cynomolgus monkey FcγRIIIaS …; assay: SPR (Biacore), antibody captured, FcgR analyte
Experimental: as §1, §2

[11] = target: T11, human FcγRIIaR extracellular domain, …; assay: SPR (Biacore), antibody captured, FcgR analyte
Experimental: as §1, §2

[12] = target: T12, human FcγRIIIaV extracellular domain, C-terminal His-tag (human, UniProt P08637 17-208); assay: SPR (Biacore), antibody captured, FcgR analyte
T12 construct: also called human FcgRIIIaV; FcgRIIIaV
T12 sequence (P08637 17-208 F176V): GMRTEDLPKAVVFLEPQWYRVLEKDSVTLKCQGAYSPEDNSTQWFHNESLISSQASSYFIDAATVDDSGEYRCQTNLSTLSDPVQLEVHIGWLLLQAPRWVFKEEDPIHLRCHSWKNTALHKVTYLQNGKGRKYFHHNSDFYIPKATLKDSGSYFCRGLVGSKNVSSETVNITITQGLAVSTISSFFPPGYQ
Experimental: as §1, §2

Binder	Binding to human FcgRs (parent B3 = 100) [1] [parent B3 = 100]	Binding to human FcgRs (parent B3 = 100) [2] [parent B3 = 100]	Binding to human FcgRs (parent B3 = 100) [3] [parent B3 = 100]	Kd [4] [µM]	Kd [5] [µM]	Kd [6] [µM]	Kd [7] [µM]	Kd [8] [µM]	Kd [9] [µM]	Kd [10] [µM]	Kd [11] [µM]	Kd [12] [µM]
B1	283	176	125									
B2	114	99	71									
B3	42	27	3									
B4	112	63	3									
B5				0.24	0.42	0.58	1.4	0.44	0.35	2.7	0.8	8.9
B6				1.1	1.4	1.7	5	1.7	1.5	4.4	27	15
B7				0.81	1.3	1.3	5.2	1.3	1.4	3.5	2.8	13
B8				1.1	1.9	11	12	19	2	4.1	2.8	15
B9				0.43	1.1	0.91	39	14	1.4	5.7	1.9	24
B10				0.25	0.56	0.47	30	0.9	1.1	6	1.3	15
B11				0.46	0.71	12	22	0.86	0.64	4	1.2	9.4
